The data set deals with CbAgo (Clostridium butyricum, UniProt P0DYD1 1-748). As to the kind of experiment: single-molecule TIRM, immobilized CbAgo.

B1: siDNA 12 nt (SM013) (ssDNA)
DNA: CCATCTGTCTTA
modifications: 5'-phosphate
On to B1, for which the binding result is listed as “binds”.

The record behind these values is publication PMC6582352.
